Test results taken from publication PMC12562343, “Modular Virus-like Particles for Antigen Presentation: Comparing Genetic Fusion and Click-Chemistry for Purification” (International Journal of Molecular Sciences, 2025).

What was measured:
[1] = target: HBc-pAzF (HBc ending at Val149 with p-azidophenylalanine in place of Ala80) (Hepatitis B virus genotype D, serotype ayw) (UniProt P03146); test: SEC; analytical HPLC-SEC of urea-dissociated samples: purified HBc VLPs after incubation with 4 M urea, and AEX eluates in 2 M urea; capsid to dimers
[2] = target: the molecule itself; test: as above

Row | Molecule | stoichiometry N [1] | stoichiometry N [2]
1 | HBc-pAzF (HBc ending at Val149 with p-azidophenylalanine in place of Ala80) (from UniProt P03146 1-149) (domain or fragment) | 2 | 
2 | truncated Hepatitis B core antigen (HBc) ending at Val149 (domain or fragment, Hepatitis B core antigen (capsid protein), HBV genotype D, serotype ayw, truncated variant ending at Val149; Forms dimers that assemble into VLPs; no tag is mentioned; also called HBc149; unmodified HBc; source: E. coli BL21(DE3), purified (AMS precipitation, AEX native or under dissociating conditions, HIC)) MDIDPYKEFGATVELLSFLPSDFFPSVRDLLDTASALYREALESPEHCSPHHTALRQAILCWGELMTLATWVGVNLEDPASRDLVVSYVNTNMGLKFRQLLWFHISCLTFGRETVIEYLVSFGVWIRTPPAYRPPNAPILSTLPETTVV |  | 2
